Results from patent US20140112915A1 (Novartis, published 2014).
Positions count from the first letter of the chain named.

T1: Recombinant human IL-18 (human, UniProt Q14116 37-193)
T1 sequence: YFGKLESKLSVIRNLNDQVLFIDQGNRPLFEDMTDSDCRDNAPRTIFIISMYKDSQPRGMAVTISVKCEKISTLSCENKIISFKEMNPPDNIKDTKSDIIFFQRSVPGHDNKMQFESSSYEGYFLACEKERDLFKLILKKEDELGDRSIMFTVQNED

T2: Recombinant cynomolgus IL-18 (cynomolgus monkey, UniProt Q14116 37-193 (human entry))
T2 chain: T1 sequence with V11I, S50N, T63A, K79R, F134Y, E141K

T3: Native human IL-18 (human, UniProt Q14116 37-193)
T3 sequence: T1 sequence

B1: MOR13342 (antibody, human IgG1, kappa, L234A L235A, V domains shown)
VH: QVQLVQSGAEVKKPGSSVKVSCKASGGTFSTFSISWVRQAPGQGLEWMGGIIPIFGTANYAQKFQGRVTITADESTSTAYMELSSLRSEDTAVYYCARGGYGGYYYFDYWGQGTLVTVSS
VL: DIQMTQSPSSLSASVGDRVTITCRASQSISNRLNWYQQKPGKAPKLLIYKGSTLQSGVPSRFSGSGSGTDFTLTISSLQPEDFATYYCQQHYVWSTTFGQGTKVEIKR
B2: MOR13347 (antibody, human IgG1, kappa, L234A L235A, V domains shown)
VH: B1 VH
VL: B1 VL with V93Q, S95L
B3: Recombinant human IL-18 Binding Protein-IgG1 Fc (Fc fusion, UniProt O95998 31-194, looked up, not shown: a dimerising Fc or GST)
chain: TPVSQTTTAATASVRSTKDPCPSQPPVFPAAKQCPALEVTWPEVEVPLNGTLSLSCVACSRFPNFSILYWLGNGSFIEHLPGRLWEGSTSRERGSTGTQLCKALVLEQLTPALHSTNFSCVLVDPEQVVQRHVVLAQLWAGLRATLPPTQEALPSSHSSPQQQG
B4: MOR10579 (antibody, human IgG1, lambda, L234A L235A, V domains shown)
VH: EVQLVQSGAEVKKPGSSVKVSCKASGGTFNSYAISWVRQAPGQGLEWMGWINPFYIGETFYAQKFQGRVTITADESTSTAYMELSSLRSEDTAVYYCARAAYHPLVFDNWGQGTLVTVSS
VL: QSVLTQPPSASGTPGQRVTISCSGSSSNIGNHYVNWYQQLPGTAPKLLIYRNNHRPSGVPDRFSGSKSGTSASLAISGLQSEDEADYYCQSWDYSGFSTVFGGGTKLTVLG
B5: MOR10222 (antibody, human IgG1, lambda, L234A L235A, V domains shown)
VH: EVQLVQSGAEVKKPGSSVKVSCKASGGTFNSYAISWVRQAPGQGLEWMGNIIPMTGQTYYAQKFQGRVTITADESTSTAYMELSSLRSEDTAVYYCARAAYHPLVFDNWGQGTLVTVSS
VL: B4 VL
B6: MOR10222_E1Q_N30S (antibody, human IgG1, lambda, L234A L235A, V domains shown)
VH: B5 VH with E1Q, N30S
VL: B4 VL

Target: T1, Recombinant human IL-18
Experiment: cell-based or functional assay

Row | Binder | IC50, inhibition of IFN-γ release, KG-1 cells, Hu IL-18 (0.5 nM) [nM] | IC50, inhibition of IFN-γ release, KG-1 cells, Hu IL-18 (1 nM) [nM] | IC50, inhibition of IFN-γ release, PBMC, Hu IL-18 (recombinant) [nM]
1 | B1 | 0.11 |  | 
2 | B2 | 0.12 |  | 
3 | B3 |  | 0.3 | 1
4 | B4 |  | 0.8 | 1.9
5 | B5 |  | 0.7 | 2.3

Target: T2, Recombinant cynomolgus IL-18
Experiment: cell-based or functional assay

Row | Binder | IC50, inhibition of IFN-γ release, KG-1 cells, Cyno IL-18 (0.2 nM) [nM] | IC50, inhibition of IFN-γ release, KG-1 cells, Cyno IL-18 [nM]
6 | B1 | 2.9 | 
7 | B2 | 2.8 | 
8 | B3 |  | 0.4
9 | B4 |  | 9.8
10 | B5 |  | 6.6

Target: T3, Native human IL-18
Experiment: cell-based or functional assay

Row | Binder | IC50, inhibition of IFN-γ release, PBMC, Native IL-18 (LPS/IL-12) [nM]
11 | B1 | 0.5
12 | B2 | 0.5
13 | B3 | 0.17
14 | B4 | 0.3
15 | B5 | 0.22

Target: T1, Recombinant human IL-18
Experiment: cell-based or functional assay
Remark: another data set of the same source

Row | Binder | IC50, inhibition of IFN-γ release, KG-1 cells, Hu IL-18 (1 nM) [nM]
16 | B6 | 3.3

Target: T3, Native human IL-18
Experiment: cell-based or functional assay
Remark: another data set of the same source

Row | Binder | IC50, inhibition of IFN-γ release, PBMC, Native IL-18 (LPS/IL-12) [nM]
17 | B6 | 0.05

Target: T1, Recombinant human IL-18
Experiment: cell-based or functional assay
Remark: another data set of the same source

Row | Binder | IC50, inhibition of IFN-γ release, human whole blood, recombinant human IL-18 (7 nM) [nM]
18 | B1 | 6.6
19 | B2 | 3.5
20 | B3 | 5.7
21 | B4 | 5.6
22 | B5 | 4.7
23 | B6 | 58.4

Target: T3, Native human IL-18
Experiment: cell-based or functional assay
Remark: another data set of the same source

Row | Binder | IC50, inhibition of IFN-γ release, human whole blood, LPS/IL-12 (native IL-18) [nM]
24 | B1 | 21.5
25 | B2 | 8.3
26 | B3 | 12.1
27 | B4 | 16.7
28 | B5 | 21.6
29 | B6 | 16.9
